The values that follow come from US20160152995A1, “METHODS AND COMPOSITIONS TO IMPROVE THE SPREAD OF CHEMICAL SIGNALS IN PLANTS” (PIONEER HI-BRED INTERNATIONAL, INC., priority 2013, published 2016).

B1: L8-3F02 (protein)
chain: MARLDKSKVINSALELLNEVGIEGLTTRKLAQKLGVEQPTLYWHVKNKRALLDALAIEMMDRHQTHYSPLEGESWQDFLRNNAKSCRRALLSHRDGAKVCLGTRWTEQQYESAENMLAFLCQQGFSLENALYAVSAVRIFTLGAVLFDQESQVAKEERETPTTDSMPPLLRQAWELKDHQGAEPAFLFGLELIIAGLEKQLKRESGS
modifications: Sulfonylurea responsive repressor
B2: L8-3F08 (protein)
chain: B1 chain with R88N, C100V, C121T, L131M, V134L, S135E, V137A, A144W, A195R, R203S
modifications: Sulfonylurea responsive repressor
B3: L8-3A06 (protein)
chain: B1 chain with S68L, R88N, C121T, I139V, A195S
modifications: Sulfonylurea responsive repressor
B4: L8-3A07 (protein)
chain: B1 chain with C86M, R88C, C121T, I139V, A144W
modifications: Sulfonylurea responsive repressor
B5: L8-3A05 (protein)
chain: B1 chain with R88N, C121T, I139V, A195S, R203S
modifications: Sulfonylurea responsive repressor
B6: L8-2H01 (protein)
chain: B1 chain with C121T, V134L, S135E, I139V, A195R
modifications: Sulfonylurea responsive repressor
B7: L8-1E04 (protein)
chain: B1 chain with S68L, R88N, C121T, I139V, F147Y, A195R, R203A
modifications: Sulfonylurea responsive repressor
B8: L8-1A06 (protein)
chain: B1 chain with L90V, C121T, I139V
modifications: Sulfonylurea responsive repressor
B9: L8-1A03 (protein)
chain: B1 chain with R88N, C121T, V134L, S135D, I139V
modifications: Sulfonylurea responsive repressor
B10: L8-3E05 (protein)
chain: B1 chain with S68C, C86L, R88C, C121T, V134L, S135Q, A144C, A195R
modifications: Sulfonylurea responsive repressor
B11: L8-3B03 (protein)
chain: B1 chain with S68L, C121T, I139V, A195R, R203S
modifications: Sulfonylurea responsive repressor
B12: L8-1A05 (protein)
chain: B1 chain with C121T, S135D, I139V, R203A
modifications: Sulfonylurea responsive repressor
B13: L8-3A04 (protein)
chain: B1 chain with C121T, I139V, A195R, S205C
modifications: Sulfonylurea responsive repressor

Positions count from the first letter of the chain named.

One data set has as its system E. coli assay strain Km3. The class given is cell-based. Particulars: library L8 hits; M9 Xgal colony assay; 200 ppb Chlorsulfuron; 24 hrs. How it is done:
Library L6 was assembled, rescued, ligated into pVER7314, transformed into E. coli KM3 and plated out onto LB carbenicillin/kanamycin, and carbenicillin only control media as before. Library plates were then picked into 42 384-well microtiter plates (˜16,000 clones) containing 60 μl LB carbenicillin (Cb) broth per well. After overnight growth at 37° C. the cultures were stamped onto M9 assay plates containing no inducer, 0.2 ppm, and 2.0 ppm chlorsulfuron as test inducer. Following incubation at 30° C. for ˜48 hrs, putative hits responding to chlorsulfuron treatment as determined by increased blue colony color were re-arrayed into six 96-well microtiter plates and used to stamp a fresh set of M9 assay plates to confirm the above results. For a more detailed analysis of the relative induction by chlorsulfuron, digital photographs were taken of the plates after various time points of incubation at 30° C. and colony color intensity measured using the digital image analysis freeware program ImageJ (Rasband, US National Institutes of Health, Bethesda, Md., USA, rsb.info.nih.gov/ij/, 1997-2007). […] From this analysis sequence-activity relationships were derived. […] Briefly, C at position 100, and Q at positions 108 and 109 strongly correlated with activation, while R at position 138, L at position 170, and A or G at position 173 were highly preferred in clones with the lowest background activity. […] This information will aid in the design of further libraries to improve responsiveness to chlorsulfuron.
Library L8 construction and screening. Fourth round shuffling incorporated the best diversity from Rd3 shuffling (BB1860) as well as computational diversity (Table 14). As diversity was very high the library oligo mix was spiked into the parental hit variant oligo mix (5, 10, and 25% mixes) to titer down the number of residue changes per clone. In addition, to varying residues for Cs activity, seven residues (C68, C86, C88, C121, C144, C195, and C203) were varied with TetR family phylogenetic substitutions in an attempt to reduce the number of cysteine residues in the repressor. The PCR assembled libraries were cloned Sac1/Asc1 into pVER7334. This plasmid encodes PBAD promoter controlled expression of a plant optimized TetR DNA binding domain fused to the wt ligand binding domain of TetR(B) encoded by native Tn10 sequence on a Sac1 to Asc1 fragment. Approximately 15,000 clones were screened for blue colony color on the M9 Xgal assay plates +/−200 ppb Chlorsulfuron (Cs). Clones were ranked by ratio of color with inducer after 24 hrs incubation over colony color without inducer for 48 hrs of incubation. The sequence trend in the overall larger population of hits (first re-array) was that L55, R104, W105 and L170 were maintained while the C144A substitution was highly preferred. Sequence trends within the hit population were then noted with respect to repression, induction and fold induction (which corrects for leakiness).
Mutagenesis reactions were transformed into library strain Km3 and 96 colonies tested for substitution by DNA sequence analysis. Substitutions representing each possible residue at each position were then re-arrayed in triplicate onto M9 X-gal assay plates with 0, 20 and 200 ppb Chlorsulfuron. Plates were incubated at 37° C. for 24 and 48 hrs prior to imaging. Residue substitutions were then ranked by activation (emphasis on 20 ppb Cs) and repression characteristics (emphasis on 48 hr time point). The mutation with the greatest impact on activity was substitution of residue N82 to phenylalanine or tyrosine. […] All other preferred substitutions shown in Table 18 either improved repression or improved sensitivity to inducer without compromising repressor function. Certain residues were indispensible to function such as R104, W105, and W174 as substitutions were not allowed. Other residue positions such as R138 and K177 were also flagged as critical since functional substitutions were extremely limited. […]
Turning to B1, the “IND = induction with 200 ppb Cs at 24 hrs (blue colony color intensity thru ImageJ analysis)” value (“IND = induction with 200 ppb Cs” below) was determined as 3.4.
In the case of B2, the “IND = induction with 200 ppb Cs” value stood at 1.5.
For the molecule B3, the “IND = induction with 200 ppb Cs” value was 0.3.
B4: the “IND = induction with 200 ppb Cs” value came out at 0.7.
Still for that read-out and setting: next, B5: 0.3; B6: 12.9.
Turning to B7, the “IND = induction with 200 ppb Cs” value is 1.5.
Take B8: the “IND = induction with 200 ppb Cs” value was found to be 2.1.
Turning to B9, the “IND = induction with 200 ppb Cs” value stood at 8.6.
For B10, the “IND = induction with 200 ppb Cs” value worked out at 1.4.
For the molecule B11, the “IND = induction with 200 ppb Cs” value was 0.6.
Take B12: the “IND = induction with 200 ppb Cs” value is reported as 10.8.
Same read-out and setting: next, B13: 0.5.

Staying with this data set, now noted: library L8 hits; M9 Xgal colony assay; ratio IND (200 ppb Cs, 24 hrs) / REP (48 hrs).
Turning to B1, the “F. IND = fold induction: induction with 200 ppb Cs at 24 hrs/repression at 48 hrs” value was 3.5.
Regarding B2, the “F. IND = fold induction: induction with 200 ppb Cs at 24 hrs/repression at 48 hrs” value worked out at 2.7.
Turning to B3, the “F. IND = fold induction: induction with 200 ppb Cs at 24 hrs/repression at 48 hrs” value is reported as 2.6.
For the molecule B4, the “F. IND = fold induction: induction with 200 ppb Cs at 24 hrs/repression at 48 hrs” value turned out to be 2.9.
For B5, the “F. IND = fold induction: induction with 200 ppb Cs at 24 hrs/repression at 48 hrs” value is listed as 3.3.
The same measure, in the same setting: next, B6: 2.7; B7: 2.5.
For B8, the “F. IND = fold induction: induction with 200 ppb Cs at 24 hrs/repression at 48 hrs” value is given as 2.7.
The same measure, in the same setting: under B9 stands 3.1.
Turning to B10, the “F. IND = fold induction: induction with 200 ppb Cs at 24 hrs/repression at 48 hrs” value amounted to 3.4.
On the same count and under the same terms, under B11 stands 2.4; under B12, 2.5; under B13, 3.3.

The same data set, now with this note: library L8 hits; M9 Xgal colony assay; without inducer; 48 hrs.
B1: the “REP = repression measured without inducer after 48 hrs (blue colony color intensity thru ImageJ analysis)” value was determined as 1.0.
In the case of B2, the “REP = repression measured without inducer after 48 hrs (blue colony color intensity thru ImageJ analysis)” value came out at 0.6.
B3: the “REP = repression measured without inducer after 48 hrs (blue colony color intensity thru ImageJ analysis)” value was 0.1.
As for B4, the “REP = repression measured without inducer after 48 hrs (blue colony color intensity thru ImageJ analysis)” value turned out to be 0.2.
The same measure, in the same setting: next, B5: 0.1.
As to B6, the “REP = repression measured without inducer after 48 hrs (blue colony color intensity thru ImageJ analysis)” value was 4.8.
For B7, the “REP = repression measured without inducer after 48 hrs (blue colony color intensity thru ImageJ analysis)” value is 0.6.
Turning to B8, the “REP = repression measured without inducer after 48 hrs (blue colony color intensity thru ImageJ analysis)” value is 0.8.
In the case of B9, the “REP = repression measured without inducer after 48 hrs (blue colony color intensity thru ImageJ analysis)” value is reported as 2.8.
Regarding B10, the “REP = repression measured without inducer after 48 hrs (blue colony color intensity thru ImageJ analysis)” value was 0.4.
Same read-out and setting: next, B11: 0.3; B12: 4.4; B13: 0.1.
